{"source": "patent US12551583B2", "about": "“Radiolabeled ligands for targeted PET/SPECT imaging and methods of their use” (MEMORIAL SLOAN KETTERING CANCER CENTER, priority 2016, dated 2026)", "key": {"in vivo": {"experiment": "in vivo", "conditions": "female, BALB/c, mouse, iv, 50 uCi, total radioactivity, 4T1 tumoral uptake", "method": "(§1) 4T1 orthotopic BALB/c mouse model. The cells were removed from the flasks, concentrated, and resuspended in minimal media for cell counting. The cells were then diluted to contain approximately 1 million cells in 30 μL of media (for orthotopic allografts). Following an MSKCC Institutional Animal Care and Use Committee approved protocol, 8-10 week old BALB/c mice (Charles River Laboratories, Wilmington, MA) were surgically implanted with one million 4T1 cancer cells into the first or the last mammary fat pad of the right side of the animal using aseptic surgical techniques and sterile staple closures while the mice were under anesthetic. Additionally, mice were given injections of meloxicam (24 h pain killer) in the scruff and bupivacaine intradermally prior to surgical incisions. One day post surgery, the mice were again given meloxicam and checked to ensure that the closure was healing. Two and three days post surgery, the mice were checked to ensure that the animals were healthy and recovering well from the surgery. Five to seven days post surgery, the staples were removed. Five to nine days post surgery, the mice were injected with 50-75 μCi (0.9-0.4 nmol) of the respective radiopharmaceutical for in vivo biodistribution or 500-600 μCi (9-11 nmol) for in vivo imaging. The mice receiving ^64Cu-NOTA-pHLIP were sacrificed at 1, 2, 4, 12, 24, 36, and 48 h; the mice receiving [^18F]—AlF-NOTA-pHLIP were sacrificed at 0.5, 1, 2, 4, 6 and 8 h. The 4T1 tumors in this study were purposely used 5-9 days after inoculation to ensure lower tumoral pH. Animal models. Animal studies were conducted according to MSKCC IACUC-approved animal protocol. 4T1 (orthotopic breast cancer allografts of 1×10^6 cells surgically implanted in the mammary fat pad) and B16-F10 (orthotopic melanoma allografts of 1×10^5 cells injected intradermally on the shoulder) tumors were orthotopically inoculated in media in female BALB/c and C57Bl/6 mice (Charles River Laboratories (CRL)), respectively. Additionally, PC3 (3×10^6 cells) or LNCaP (3-6×10^6 cells) tumors were subcutaneously xenografted on the shoulder of athymic nude male mice (CRL). Mice were used once tumor volumes were approximately 90-300 mm^3. In vivo animal PET imaging and biodistribution. Mice were injected with radiolabeled NOTA-pHLIP derivatives i.v. (500-700 μCi/mouse for PET or SPECT imaging studies and 25-100 μCi/mouse for biodistribution studies). All injections were less than 200 μL with <10% EtOH in sterile PBS. PET images were obtained with the mice under anesthesia in an Inveon PET-CT or microPET Focus 120 (Siemens) at 0.5-48 h p.i. All images were analyzed using ASIPro VM (Concorde Microsystems). SPECT images were obtained with the mice under anesthesia in a NanoSPECT/CT Plus at 4-24 h p.i. All SPECT images were reconstructed using HiSPECT and analyzed using InVivoScope. Dissections for ex vivo biodistribution were performed on mice after CO2 asphyxiation or cervical dislocation while anesthetized at reported time points. Weight of the syringe prior to injection and after injection was used to determine the mass of injectate. Activity of the syringe prior to injection and after injection was used to determine the percent of injectate administered. The mass injected was corrected by the percent of radioactivity injected. Four to five aliquots (10 μL) were weighed and counted as internal standards for each study. All of the collected organs were counted using an automatic gamma counter (Wizard 3″, PerkinElmer, Waltham, MA). The total injected dose was found as the mass injected dose×fraction radioactivity injected×internal standard average counts/g. The percent injected dose (% ID) was determined as the counts for the tissue×100/total injected dose. The % ID/g was calculated as the % ID/tissue weight. The average and standard deviation of the % ID and % ID/g was determined using normal methods (n−1) for each set of mice."}, "[1]": {"tested_on": "PC3 tumor-bearing male nude mice", "conditions": "mouse, in vivo", "method": "(§2) PC3 shoulder nude mouse xenografts. The cells were removed from the flasks, concentrated, and resuspended in minimal media for cell counting. The cells were then diluted to contain approximately 3 million cells in 150 μL of 1:1 media and matrigel (for shoulder xenografts). Following an MSKCC Institutional Animal Care and Use Committee approved protocol, 150 μL of the cell suspension was injected subcutaneously in 6-9 week old nude male mice (CRL). Mice were used in studies at 3 weeks post inoculation. The mice were injected with 50-75 μCi (0.9-0.4 nmol) of the respective radiopharmaceutical for in vivo biodistribution or 500-600 μCi (9-11 nmol) for in vivo imaging. […]\n(§3) In vivo animal PET imaging and biodistribution. […] All images were analyzed using ASIPro VM (Concorde Microsystems). […] All SPECT images were reconstructed using HiSPECT and analyzed using InVivoScope. […] The mass injected was corrected by the percent of radioactivity injected. Four to five aliquots (10 μL) were weighed and counted as internal standards for each study. All of the collected organs were counted using an automatic gamma counter (Wizard 3″, PerkinElmer, Waltham, MA). The total injected dose was found as the mass injected dose×fraction radioactivity injected×internal standard average counts/g. The percent injected dose (% ID) was determined as the counts for the tissue×100/total injected dose. […]"}, "[2]": {"tested_on": "LNCaP tumor-bearing male nude mice", "conditions": "mouse, in vivo", "method": "as §2, with “LNCaP shoulder” for “PC3 shoulder”, “approximately 3-6” for “approximately 3”, “matrigel (or” for “matrigel (for”, “in 6-8” for “in 6-9”, “at 3-8” for “at 3”\nas §3"}, "tumor": {"tested_on": "tumor", "conditions": "in vivo; cited from earlier work"}, "[3]": {"tested_on": "4T1 orthotopic tumor-bearing BALB/c mice", "experiment": "in vivo", "conditions": "mouse", "method": "as §1"}}, "data": [{"compound": "CC(C)C[C@@H](NC(=O)[C@@H](CC(C)C)NC(=O)[C@@H](CC(=O)O)NC(=O)[C@@H](CC(C)C)NC(=O)[C@@H](CC(C)C)NC(=O)[C@@H](CC(C)C)NC(=O)[C@H](NC(=O)[C@@H](CC(=O)O)NC(=O)[C@H](NC(=O)[C@H]1CCCN1C(=O)[C@@H](Cc1ccccc1)NC(=O)[C@@H](CC(C)C)NC(=O)[C@@H](CC(C)C)NC(=O)[C@@H](CC(=O)O)NC(=O)[C@@H](CC(C)C)NC(=O)[C@@H](Cc1ccc(O)cc1)NC(=O)[C@@H](C)NC(=O)[C@@H](CCCNC(=N)N)NC(=O)[C@@H](Cc1c[nH]c2ccccc12)NC(=O)[C@H]1CCCN1C(=O)[C@@H](CC(N)=O)NC(=O)[C@@H](CCC(N)=O)NC(=O)[C@@H](CC(=O)O)NC(=O)[C@@H](CC(=O)O)NC(=O)[C@@H](CSC1CC(=O)N(CCNC(=O)CN2CCN(CC(=O)O)CCN(CC(=O)O)CC2)C1=O)NC(=O)[C@@H](C)N)[C@H](C)O)[C@H](C)O)C(=O)N[C@H](Cc1c[nH]c2ccccc12)C(=O)O", "note": "(single isomer, unassigned) [^64Cu-NO2A-cysVar3, metal not drawn]", "values": [{"measurement": "tissue uptake at 24 h", "setting": "in vivo", "value": "19.2 ± 1.8", "unit": "%ID/g"}, {"measurement": "tumor:bone ratio", "setting": "[1]", "value": "2.7±0.6"}, {"measurement": "tumor:muscle ratio", "setting": "[1]", "value": "7.4±1.3"}, {"measurement": "tumor:bone ratio", "setting": "[2]", "value": "4.2±1.7"}, {"measurement": "tumor:muscle ratio", "setting": "[2]", "value": "6±2"}]}, {"compound": "CC(C)C[C@@H](NC(=O)[C@@H](CCC(=O)O)NC(=O)[C@@H](CC(C)C)NC(=O)[C@@H](CC(C)C)NC(=O)[C@@H](CC(C)C)NC(=O)[C@H](NC(=O)[C@@H](CCC(=O)O)NC(=O)[C@H](NC(=O)[C@H]1CCCN1C(=O)[C@@H](Cc1ccccc1)NC(=O)[C@@H](CC(C)C)NC(=O)[C@@H](Cc1c[nH]c2ccccc12)NC(=O)[C@@H](CCC(=O)O)NC(=O)[C@@H](CC(C)C)NC(=O)[C@@H](Cc1ccc(O)cc1)NC(=O)[C@@H](CCCNC(=N)N)NC(=O)[C@@H](C)NC(=O)[C@@H](Cc1c[nH]c2ccccc12)NC(=O)[C@H]1CCCN1C(=O)[C@@H](CC(N)=O)NC(=O)[C@@H](CCC(N)=O)NC(=O)[C@@H](CCC(=O)O)NC(=O)[C@@H](CCC(=O)O)NC(=O)[C@@H](CS)NC(=O)[C@@H](C)NC(=S)Nc1ccc(CC2CN(CC(=O)O)CCN(CC(=O)O)CCN2CC(=O)O)cc1)[C@H](C)O)[C@H](C)O)C(=O)O", "note": "(single isomer, unassigned) [^64Cu-NOTA-Var7, metal not drawn]", "values": [{"measurement": "overall tumor uptake", "setting": "tumor", "value": "1.36±0.43", "unit": "% ID/g"}, {"measurement": "kidneys-to-large intestine ratio", "setting": "[3]", "value": "0.32±0.07"}, {"measurement": "biodistribution, Blood", "setting": "[3]; iv, 4 h", "value": "0.833 ± 0.068", "unit": "% ID/g"}, {"measurement": "biodistribution, Bone", "setting": "[3]; iv, 4 h", "value": "0.229 ± 0.093", "unit": "% ID/g"}, {"measurement": "biodistribution, Brain", "setting": "[3]; iv, 4 h", "value": "0.042 ± 0.004", "unit": "% ID/g"}, {"measurement": "biodistribution, Heart", "setting": "[3]; iv, 4 h", "value": "0.35 ± 0.04", "unit": "% ID/g"}, {"measurement": "biodistribution, Kidneys", "setting": "[3]; iv, 4 h", "value": "6.790 ± 0.461", "unit": "% ID/g"}, {"measurement": "biodistribution, L. intestine", "setting": "[3]; iv, 4 h", "value": "7.78 ± 0.61", "unit": "% ID/g"}, {"measurement": "biodistribution, Liver", "setting": "[3]; iv, 4 h", "value": "0.739 ± 0.041", "unit": "% ID/g"}, {"measurement": "biodistribution, Lungs", "setting": "[3]; iv, 4 h", "value": "0.996 ± 0.066", "unit": "% ID/g"}, {"measurement": "biodistribution, Muscle", "setting": "[3]; iv, 4 h", "value": "0.118 ± 0.025", "unit": "% ID/g"}, {"measurement": "biodistribution, Pancreas", "setting": "[3]; iv, 4 h", "value": "0.198 ± 0.043", "unit": "% ID/g"}, {"measurement": "biodistribution, S. intestine", "setting": "[3]; iv, 4 h", "value": "0.307 ± 0.077", "unit": "% ID/g"}, {"measurement": "biodistribution, Skin", "setting": "[3]; iv, 4 h", "value": "0.563 ± 0.145", "unit": "% ID/g"}, {"measurement": "biodistribution, Spleen", "setting": "[3]; iv, 4 h", "value": "0.279 ± 0.016", "unit": "% ID/g"}, {"measurement": "biodistribution, Stomach", "setting": "[3]; iv, 4 h", "value": "0.300 ± 0.076", "unit": "% ID/g"}, {"measurement": "biodistribution, Tumor (4T1 tumoral uptake)", "setting": "[3]; iv, 4 h", "value": "0.546 ± 0.075", "unit": "% ID/g"}]}]}
